Test results: patent publication US20160017016A1 (AstraZeneca / MedImmune, published 2016)
*1 amine or outer side, *2 acyl side, *3 side chain or, on linkers, in order; H or OH if unused. Primed or numbered codes have the meaning given here. Where no end group is shown, it is not given here. Side-chain parts run from the residue outwards. [ ]: non-standard residue; d: D form. The star is where a group is joined. PEG4′ = 4 PEG units (K(PEGxpalm): Lys with x PEG units and palmitoyl at epsilon N, C-terminal (PEG)4); γGlu = O=C(O)[C@H](CCC(=O)[*:2])N[*:1]; Palmitoyl = CCCCCCCCCCCCCCCC(=O)*; PEG12′ = not defined here

Legend:
[1] = target: human GLP-1 receptor (GLP-1R) (human, UniProt P43220 24-463); experiment: cell-based or functional assay
[2] = target: human glucagon receptor (GCGR) (human, UniProt P47871 26-477); experiment: cell-based or functional assay
Sequence of human glucagon receptor (GCGR) (P47871 26-477): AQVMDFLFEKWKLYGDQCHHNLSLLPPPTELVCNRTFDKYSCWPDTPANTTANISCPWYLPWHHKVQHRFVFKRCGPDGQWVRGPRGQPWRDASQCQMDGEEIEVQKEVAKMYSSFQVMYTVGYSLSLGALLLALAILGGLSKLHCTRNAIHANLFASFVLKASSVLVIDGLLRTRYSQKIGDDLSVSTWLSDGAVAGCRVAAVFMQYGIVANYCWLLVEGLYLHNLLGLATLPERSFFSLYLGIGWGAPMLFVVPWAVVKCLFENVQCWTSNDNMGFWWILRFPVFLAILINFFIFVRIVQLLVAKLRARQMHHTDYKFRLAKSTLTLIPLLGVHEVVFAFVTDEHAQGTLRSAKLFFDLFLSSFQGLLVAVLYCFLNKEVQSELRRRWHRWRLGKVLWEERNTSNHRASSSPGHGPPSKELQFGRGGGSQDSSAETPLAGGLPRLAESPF

cAMP activity, GLP1 EC50 nM [1] [nM] | cAMP activity, Glcg EC50 nM [2] [nM] | Binder
0.1 | 0.4 | HSEGTFTSDYSKYK([γGlu-Palmitoyl])DSRRAQDFVQWLV[PEG4′] [g515]
0.04 | 0.02 | HSQGTFTSDYSKYLDSK([γGlu-Palmitoyl])RAQRDFVAWLV[PEG12′] (not fully specified; printed as HSQGTFTSDYSKYLDSBRAQRDFVAWLVZ12) [g828]
0.2 | 4 | HGQGTFTSDYSEYLDSK([γGlu-Palmitoyl])RAQDFVQWLV[PEG4′] [g695]
0.01 | 0.004 | HSQGTFTSDYSKYLDSRKAQDFVQWLV[PEG4′] (not fully specified (residue 18); printed as HSQGTFTSDYSKYLDSRB1AQDFVQWLVZ4) [g423]
0.2 | 0.04 | HSQGTFTSDYSRYLDSK([γGlu-Palmitoyl])RARDFVAWLV[PEG4′] [g827]
0.004 | 0.005 | HSQGTFTSDYSKYLDSXRAQDFVQWLE (not fully specified; K(PEG4-palm) at 17; C-terminal PEG4) [g429]
0.1 | > 2 | HGQGTFTSDYSKYLDSK([γGlu-Palmitoyl])RAEDFVQWLV[PEG4′] [g693]
0.004 | 0.002 | HSQGTFTSDYSKYKDSRRAQDFVQWLV[PEG4′] (not fully specified (residue 14); printed as HSQGTFTSDYSKYB1DSRRAQDFVQWLVZ4) [g427]
0.8 | > 1800 | HGQGTFTSDYSKYLDSEK([γGlu-Palmitoyl])ARDFVAWLV[PEG4′] [g735]
0.02 | 0.002 | HSQGTFTSDYSKYLDSXRAQDFVQWLE (K(PEG3-palm) at 17; C-terminal PEG4) [g503]
0.4 | 0.009 | HSQGTFTSDYSKYLDK([γGlu-Palmitoyl])RRAQDFVQWLV[PEG4′] [g424]
0.03 | 0.004 | HSQGTFTSDYSKYLDSRRAXDFVQWLV (K(PEG4-palm) at 20; C-terminal PEG4) [g457]
0.07 | 0.2 | HGQGTFTSDYSKYLDSK([γGlu-Palmitoyl])RAQDFVEWLV[PEG4′] [g694]
0.02 | 0.003 | HSQGTFTSDYSXYLDSRRAQDFVQWLV (not fully specified; K(PEG4-palm) at 12; C-terminal PEG4) [g417]
0.6 | 2 | HGQGTFTSDYSKYLESK([γGlu-Palmitoyl])RAQDFVQWLV[PEG4′] [g498]
0.09 | 0.002 | HSQGTFTSDYSKYLDK([PEG4′-Palmitoyl])RRAQDFVQWLE[PEG4′] [g495]
1.6 | 0.08 | HSQGTFTSDYSKYLDSRRAQDFVQWLV (C-terminal 6-aminohexanoic acid (Ahx)) [g357]
0.2 | 0.7 | HSQGTFTSDYSKYLDSRK([γGlu-Palmitoyl])AQDFVQWLV[PEG4′] [g422]
0.03 | 0.03 | HSQGTFTSDYSKYLDK([PEG4′-Palmitoyl])SRARDFVAWLV[PEG4′] [g972]
0.03 | 0.001 | HSQGTFTSDYSKYLDSXRAQDFVQWLE (K(PEG2-palm) at 17; C-terminal PEG4) [g502]
3.2 | 0.03 | HSQGTFTSDYSKYLDSRRAQDFVQWLV (C-terminal 11-aminoundecanoic acid (Aud)) [g358]
0.1 | 0.02 | HGQGTFTSDYSKYK([γGlu-Palmitoyl])DSRRAQDFVQWLV[PEG4′] [g514]
0.008 | 0.002 | HSQGTFTSDYSKYLDKRRAQDFVQWLV[PEG4′] (not fully specified (residue 16); printed as HSQGTFTSDYSKYLDB1RRAQDFVQWLVZ4) [g425]
0.5 | 0.08 | HSQGTFTSDYSKYLDSRK([γGlu-Palmitoyl])AQDFVQWLE[PEG4′] [g454]
